The record followed here is the supplement of paper PMC10899765.

Conditions in all cases: 20 nM; 72 h
In series [1] the test system is MCF10A. The series is described as follows: one-nucleolus phenotype percent effect (relative to siNT 0% and siNOL11 100%); higher = more cells with one nucleolus (ribosome biogenesis inhibition). On the procedure: (§1)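 After 72 h, cells were fixed and stained with Hoechst and anti-fibrillarin, and nucleoli per nucleus were counted with CellProfiler. Values are plate-adjusted percent effect for the one-nucleolus and 5+ nucleoli phenotypes, normalised to siNT (0%) and to the positive controls siNOL11 or siKIF11 (100%), as the mean of biological triplicates. Percent viability is the nuclei count relative to siNT.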

The subject of series [2] is MCF10A. The experiment in a line: percent viability (nuclei count relative to siNT); higher = more viable cells. On the procedure: as §1
Series [3] deals with MCF10A. The series is described as follows: 5+ nucleoli phenotype percent effect (relative to siNT 0% and siKIF11 100%); higher = more cells with five or more nucleoli. On the procedure: as §1

Regarding UUGAAUUCUUGGCCUUAAGUGAU [hsa-miR-4452], the “one-nucleolus phenotype percent effect” value with MCF10A [1] is -19.4%. The percent viability with MCF10A [2] stood at 42.1%. For the same sequence, the “5+ nucleoli phenotype percent effect” value with MCF10A [3] is -9.56%.
Regarding UGGGCUGAGGGCAGGAGGCCUGU [hsa-miR-4656], in the series with MCF10A [1], the “one-nucleolus phenotype percent effect” value was found to be 22.2%. In addition, the percent viability with MCF10A [2] amounted to 9.2%. Also, the “5+ nucleoli phenotype percent effect” value in the series with MCF10A [3] was determined as 20.8%.
With “AGGUGUUAUCCUAUCCAUUUGC [hsa-miR-4694-5p]”, in the series with MCF10A [1], the “one-nucleolus phenotype percent effect” value was found to be 24.2%. Also, in the series on MCF10A [2], the percent viability was 25.3%. Further, the “5+ nucleoli phenotype percent effect” value with MCF10A [3] is -15.4%.
Regarding “UGAGGACAGGGCAAAUUCACGA [hsa-miR-5004-5p]”, the “one-nucleolus phenotype percent effect” value in the series on MCF10A [1] is 10%. The percent viability in the series on MCF10A [2] amounted to 36%. The “5+ nucleoli phenotype percent effect” value in the series on MCF10A [3] was -12.8%.
For “AAAUUCAUGUUCAAUCUAAACC [hsa-miR-4760-3p]” the same measures were -13.1%, 68.6% and 10%.
Taken in the same sequence, the figures for ACUUACAGACAAGAGCCUUGCUC [hsa-miR-600] were -28.1%, 145% and 41.8%.
Take “AAGUGCCGCCAUCUUUUGAGUGU [hsa-miR-371a-3p]”: in the series with MCF10A [1], the “one-nucleolus phenotype percent effect” value is -8.12%. The percent viability in the series on MCF10A [2] was 45.8%. Further, in the series on MCF10A [3], the “5+ nucleoli phenotype percent effect” value was -0.0057%.
Taken in the same sequence, the figures for “ACGGGCAGGGCAGUGCACCCUG [hsa-miR-7112-5p]” were 12.5%, 31.2% and 2.37%.
Taken in the same sequence, the figures for “CAGUGCAAUGUUAAAAGGGCAU [hsa-miR-130a-3p]” were -19.9%, 120% and 49.2%.
For the sequence “UAAGGUGCAUCUAGUGCAGUUAG [hsa-miR-18b-5p]”, the “one-nucleolus phenotype percent effect” value with MCF10A [1] was found to be 40.6%. Besides, the percent viability in the series with MCF10A [2] came out at 41.9%. Besides, the “5+ nucleoli phenotype percent effect” value in the series on MCF10A [3] is -32.4%.
Take UUCAGAUCCCAGCGGUGCCUCU [hsa-miR-5100]: the “one-nucleolus phenotype percent effect” value in the series with MCF10A [1] is 14.1%. The percent viability in the series on MCF10A [2] came to 39.2%. Further, the “5+ nucleoli phenotype percent effect” value with MCF10A [3] was -27.6%.
Taken in the same sequence, the figures for UCUCUCGGCUCCUCGCGGCUC [hsa-miR-3615] were -7.12%, 69.8% and 27.8%.
Taken in the same sequence, the figures for AGGAGGACAAGUUGUGGGAU [hsa-miR-7154-3p] were 39.7%, 7.01% and -9.57%.
As for ACCUGGACCCAGCGUAGACAAAG [hsa-miR-3690], the “one-nucleolus phenotype percent effect” value in the series with MCF10A [1] is -25.7%. Moreover, in the series with MCF10A [2], the percent viability amounted to 79.1%. In the series with MCF10A [3], the “5+ nucleoli phenotype percent effect” value is 65%.
For “UGCCCCAUCUGUGCCCUGGGUAGGA [hsa-miR-3189-5p]” the same measures were 1.04%, 52.5% and 42.8%.
For UUCUGCUGCCGGCCAAGGC [hsa-miR-6071] the same measures were 22.1%, 27.8% and -25.7%.
ACCGUGGCUUUCGAUUGUUACU [hsa-miR-132-5p]: the “one-nucleolus phenotype percent effect” value in the series on MCF10A [1] was -1.09%. Further, in the series with MCF10A [2], the percent viability worked out at 68.8%. For the same sequence, the “5+ nucleoli phenotype percent effect” value with MCF10A [3] was -7.44%.
For ACCGUCUCUUCUGUUCCCCAG [hsa-miR-6827-3p], in the series on MCF10A [1], the “one-nucleolus phenotype percent effect” value is 16.9%. Moreover, the percent viability in the series with MCF10A [2] turned out to be 64.6%. Moreover, in the series with MCF10A [3], the “5+ nucleoli phenotype percent effect” value is -12.7%.
For “ACUUUCCUCACUCCCGUGAAGU [hsa-miR-3124-3p]” the same measures were -15.5%, 115% and 49.4%.
Taken in the same sequence, the figures for CUAUACAACUUACUACUUUCCC [hsa-miR-98-3p] were -31.6%, 59.1% and 45.5%.
For GCAGAGAACAAAGGACUCAGU [hsa-miR-3919] the same measures were 38.7%, 23.3% and -14.9%.
As to UCAUUAUAUGUAUGAUCUGGAC [hsa-miR-4528], the “one-nucleolus phenotype percent effect” value in the series on MCF10A [1] was -16.8%. Also, the percent viability in the series with MCF10A [2] worked out at 57.6%. In the series on MCF10A [3], the “5+ nucleoli phenotype percent effect” value was -2.39%.
For CUGAAGCUCAGAGGGCUCUGAU [hsa-miR-127-5p] the same measures were 39%, 45.5% and -40.5%.
For “UAGUGGUCCUAAACAUUUCACA [hsa-miR-203b-5p]” the same measures were 58.6%, 15.6% and -42.9%.
Taken in the same sequence, the figures for UGAGUGUUGUCUACGAGGGCA [hsa-miR-3659] were -0.683%, 59% and 21.3%.
Regarding UGGAGGAGAAGGAAGGUGAUG [hsa-miR-765], in the series with MCF10A [1], the “one-nucleolus phenotype percent effect” value turned out to be 26.5%. For the same sequence, the percent viability in the series with MCF10A [2] was found to be 21.1%. For the same sequence, the “5+ nucleoli phenotype percent effect” value in the series with MCF10A [3] was found to be 16.3%.
For AUUGACACUUCUGUGAGUAGA [hsa-miR-514a-3p] the same measures were 13.2%, 56.9% and -5.72%.
For “CACCCCCUGUUUCCUGGCCCAC [hsa-miR-4640-3p]” the same measures were -11.3%, 127% and 31.4%.
Regarding UGCGGCAGAGCUGGGGUCA [hsa-miR-6820-5p], the “one-nucleolus phenotype percent effect” value with MCF10A [1] is 11.9%. The percent viability in the series with MCF10A [2] was determined as 16.9%. The “5+ nucleoli phenotype percent effect” value with MCF10A [3] turned out to be 3.87%.
For CACCAUGGACGGUUUACC [hsa-miR-7153-3p] the same measures were 62.9%, 23.4% and -48.4%.
Taken in the same sequence, the figures for AUCAUACAAGGACAAUUUCUUU [hsa-miR-539-3p] were -9.28%, 39.4% and -9.08%.
Take AGGCAUUGACUUCUCACUAGCU [hsa-miR-1256]: the “one-nucleolus phenotype percent effect” value with MCF10A [1] was 1.57%. Moreover, in the series with MCF10A [2], the percent viability amounted to 32.9%. Also, the “5+ nucleoli phenotype percent effect” value in the series with MCF10A [3] came to 2.63%.
For GAAUCGGAAAGGAGGCGCCG [hsa-miR-3610] the same measures were -7.32%, 93.4% and 19.9%.
For AAAUUAUUGUACAUCGGAUGAG [hsa-miR-944] the same measures were 9.85%, 33.3% and -36.2%.
For CUCACUCUCAGUCCCUCCCU [hsa-miR-6794-3p] the same measures were -18.1%, 88.6% and 27.6%.
As to UGGGUGGAAGAAGGUCUGGUU [hsa-miR-6745], in the series on MCF10A [1], the “one-nucleolus phenotype percent effect” value is 17.1%. In the series on MCF10A [2], the percent viability came to 6.73%. Further, the “5+ nucleoli phenotype percent effect” value in the series with MCF10A [3] is -9.03%.
Taken in the same sequence, the figures for UAGGAUGGGGGUGAGAGGUG [hsa-miR-2392] were -3.85%, 50.4% and 17.7%.
For UGCUGAGGUCCGGGCUGUGCC [hsa-miR-7160-5p] the same measures were 47.5%, 16.8% and -22.1%.
Taken in the same sequence, the figures for “AACUCUGACCCCUUAGGUUGAU [hsa-miR-4714-5p]” were -5.26%, 41.1% and -16.1%.
Turning to UGGUUUACCGUCCCACAUACAU [hsa-miR-299-5p], the “one-nucleolus phenotype percent effect” value in the series on MCF10A [1] turned out to be 24.1%. For the same sequence, the percent viability with MCF10A [2] is 27.9%. Also, in the series with MCF10A [3], the “5+ nucleoli phenotype percent effect” value is -19.4%.
Taken in the same sequence, the figures for AAUGUGUAGCAAAAGACAGA [hsa-miR-511-3p] were 55.2%, 18.7% and -40.6%.
Consider CAAGGGACCAAGCAUUCAUUAU [hsa-miR-4475], for which the “one-nucleolus phenotype percent effect” value in the series with MCF10A [1] was determined as 7.86%. The percent viability with MCF10A [2] was found to be 37.7%. Also, the “5+ nucleoli phenotype percent effect” value with MCF10A [3] was -16.1%.
Consider UGUGAUAUCAUGGUUCCUGGGA [hsa-miR-3689e], for which, in the series on MCF10A [1], the “one-nucleolus phenotype percent effect” value is 4.57%. The percent viability with MCF10A [2] stood at 30.9%. Moreover, in the series with MCF10A [3], the “5+ nucleoli phenotype percent effect” value was -30.6%.
For UGUCACCCGCUCCUUGCCCAG [hsa-miR-6879-3p] the same measures were 3.65%, 47.6% and -23.3%.
Taken in the same sequence, the figures for CUCCAGAGGGAUGCACUUUCU [hsa-miR-525-5p] were 20.6%, 36.5% and -22.1%.
As for “UGGGGAGCGGCCCCCGGGUGGG [hsa-miR-1343-5p]”, in the series with MCF10A [1], the “one-nucleolus phenotype percent effect” value is -31.1%. Moreover, in the series on MCF10A [2], the percent viability was 86%. Also, in the series on MCF10A [3], the “5+ nucleoli phenotype percent effect” value stood at 48.5%.
Taken in the same sequence, the figures for “AGUAGAGAGGAAAAGUUAGGGUC [hsa-miR-6832-5p]” were -10.8%, 64.7% and 20.4%.
For GAGAGCAGUGUGUGUUGCCUGG [hsa-miR-2278] the same measures were 40.5%, 30.7% and -44.7%.
